Test results taken from patent US7790398B2, “Method for determining effective parathormone activity in a sample” (priority 2001, dated 2010).

Tests used:
[1] = system: captor antibody against the N-terminal PTH fragment (anti-hPTH(1-34)); test: Spiking experiments with hPTH(1-37) fragments, Nichols IRMA intact PTH test; assay type: binding, goat; settings: 1000 pM hPTH(1-37) added
Experimental: The Nichols Intact PTH Assay (Nichols Institute, San Juan Capistrano, Calif., U.S.A) is a double binding immunoradiometry assay (IRMA) with two polyclonal goat antibodies. […] The second detection antibody, marked with ^125Iodine, recognizes an epitope in the N-terminal section of the PTH (anti-hPTH(1-34)). The sample was incubated at the same time with the antibody coated beads and the ^125Iodine marked detection antibody overnight (12±2 h) at room temperature. After the incubation, the beads were washed and the radioactivity adhering to the solid phase measured in a gamma counter (LKB1277 Gamma Master from Perkin-Elmer). The dose measurement curve (MultiCalc Software) between bound radioactivity and concentration in the sample was determined strictly in accordance with the manufacturer's instructions via a standard measured at the same time. […]
The standard sample and the plasma pools where in each case treated with three different concentrations of hPTH(1-37) fragments in five different oxidation and state forms and then the recovered PTH contents determined. […]
There were produced from each fragment solution three initial concentrations (1000 nM, 100 nM and 10 nM). A further dilution of the fragment solutions 1:100 in the standard and in the pool plasma yielded final concentrations of […] in the sample to be analyzed. […]

[2] = system: captor antibody used in the Roche Elecsys 2010 PTH test; test: Oxidation and reduction of plasma samples, measured with Roche Elecsys 2010 PTH test
Experimental: The Roche Elecsys™ PTH assay is an electrochemiluminescence immunoassay (ECLIA) on the fully automatic immunoanalyzer Elecsys ^R2010. The epitope recognized by the biotinylated captor antibody contains the PTH amino acids 26 to 32 and the monoclonal ruthenium detection antibody recognizes, in accordance with the information from the manufacturer, an epitope in the region of the PTH amino acids 55 to 64. Sample and antibodies were incubated together for 9 minutes at 37° C., Streptavidin coated paramagnetic beads introduced to the incubation mixture, and finally incubated for further 9 minutes. After magnetic separation of the bonded conjugates from the free conjugates on an electrode surface the luminescence was determined and the end PTH concentration determined via a recalibrated master curve. The interassay variance in the lower and upper normal region was less than 7% CV and in the high concentration region 5% CV.
(§1) 30 plasma samples of dialysis patients and ESRD patients (ESRD=end stage renal disease) were selected at random and oxidized with hydrogen peroxide (30%; end concentration: 1.5 Mol/L) or reduced with sodium boron hydride (NaBH4, aqueous solution of 100 nMol/L). All samples, treated and untreated, where measured at the same time with the Roche Elecsys™2010 and the Nichols IRMA test.
(§2) The oxidation was effected with 30% hydrogen peroxide solution. The hydrogen peroxide concentration in the incubation preparation was at 17% of the 30% solution. All samples were incubated for 45 minutes at 37° C., then also cooled down to −70° C., lyophilized and stored at −20° C. until the quantitative PTH determination.
Of 20 samples an aliquot of each in the ratio 1:1 (v/v) was treated and reduced with a 100 nMol NaBH4 solution. Further, of 10 oxidized samples in each case an aliquot was reverse reduced by the addition of a 100 nMol NaBH4 solution in the ratio 1:1. The samples were incubated for 45 minutes at room temperature and the reaction stopped on dry ice. After the lyophilization the samples were deep frozen at −20° C. until determination. The diagrams of FIGS. 5 to 11 show the results.

[3] = system: polyclonal antibodies employed in the Nichols test; test: Oxidation and reduction of plasma samples, measured with Nichols IRMA; parameters: species or system goat; settings: H2O2 oxidation
Experimental: The Nichols Intact PTH Assay (Nichols Institute, San Juan Capistrano, Calif., U.S.A) is a double binding immunoradiometry assay (IRMA) with two polyclonal goat antibodies. The captor antibody, immobilized in plastic beads, binds only in the middle or C-terminal section of the hPTH (anti-hPTH(39-89)). The second detection antibody, marked with ^125Iodine, recognizes an epitope in the N-terminal section of the PTH (anti-hPTH(1-34)). The sample was incubated at the same time with the antibody coated beads and the ^125Iodine marked detection antibody overnight (12±2 h) at room temperature. After the incubation, the beads were washed and the radioactivity adhering to the solid phase measured in a gamma counter (LKB1277 Gamma Master from Perkin-Elmer). The dose measurement curve (MultiCalc Software) between bound radioactivity and concentration in the sample was determined strictly in accordance with the manufacturer's instructions via a standard measured at the same time. The interassay variance in the normal and increased region was less than 10% CV.
as §1, §2
Of 20 samples an aliquot of each in the ratio 1:1 (v/v) was treated and reduced with a 100 nMol NaBH4 solution. Further, of 10 oxidized samples in each case an aliquot was reverse reduced by the addition of a 100 nMol NaBH4 solution in the ratio 1:1. […]

[4] = H2O2 oxidation, individual samples

Molecule | signal reduction to % of the native measured sample [1] [%] | measurement value after oxidation, average, of the initial value ([2]; H2O2 oxidation, 45 minutes at 37° C., plasma of dialysis and ESRD patients) [%] | highest remaining measurement signal after oxidation, % of initial value [2, 4] [%] | lowest remaining measurement signal after oxidation, % of initial value [2, 4] [%] | measurement value after oxidation and reverse reduction, of the initial value ([2]; H2O2 then NaBH4) | concentration after oxidation, average, of the initial value [3] [%] | highest remaining concentration after oxidation, % of initial value (smallest reduction) ([3]; individual samples) [%] | lowest remaining concentration after oxidation, % of initial value (largest reduction) ([3]; individual samples) [%]
hPTH(1-37): native hPTH(1-37) fragment of human parathyroid hormone, from IPF or Immundiagnostik AG (SVSEIQLMHNLGKHLNSMERVEWLRKKLQDVHNFVAL; Parathyroid hormone; UniProt P01270 32-68, looked up, fragment) | 50 |  |  |  |  |  |  | 
PTH: parathyroid hormone, single polypeptide chain of 84 amino acids, endogenous in plasma samples of dialysis patients (protein, UniProt P01270 32-115, looked up, Parathyroid hormone, parathyroid hormone, single polypeptide chain of 84 amino acids, endogenous in plasma samples of dialysis patients) Parathyroid hormone: SVSEIQLMHNLGKHLNSMERVEWLRKKLQDVHNFVALGAPLAPRDAGSQRPRKKEDNVLVESHEKSLGEADKADVNVLTKAKSQ |  | 29 | 53 | 10 | ca. 50% | 76 | 98 | 33
